From article PMC11040006, “Molecular basis of an atypical dsDNA 5mC/6mA bifunctional dioxygenase CcTet from Coprinopsis cinerea in catalyzing dsDNA 5mC demethylation” (Nucleic Acids Research, 2024)
Numbering of substitutions follows the chain as printed.

Experiments:
[1] = biological target: T1, CcTet-ΔN16 (CcTet-Δ16; CcTet) (Coprinopsis cinerea, UniProt A8P1J0); experiment: X-ray crystallography, […] Å; type: binding; details: complex with Mn2+ and 12-bp 5mC-dsDNA; 2 mM NOG in the crystallization mix; 2-oxoglutarate site
T1 construct: gene CC1G_05589; N-terminal 16 residues deleted; His-SUMO1 tag removed by Ulp1; expressed in E. coli BL21(DE3) from pET-SUMO
T1 sequence (A8P1J0 17-430): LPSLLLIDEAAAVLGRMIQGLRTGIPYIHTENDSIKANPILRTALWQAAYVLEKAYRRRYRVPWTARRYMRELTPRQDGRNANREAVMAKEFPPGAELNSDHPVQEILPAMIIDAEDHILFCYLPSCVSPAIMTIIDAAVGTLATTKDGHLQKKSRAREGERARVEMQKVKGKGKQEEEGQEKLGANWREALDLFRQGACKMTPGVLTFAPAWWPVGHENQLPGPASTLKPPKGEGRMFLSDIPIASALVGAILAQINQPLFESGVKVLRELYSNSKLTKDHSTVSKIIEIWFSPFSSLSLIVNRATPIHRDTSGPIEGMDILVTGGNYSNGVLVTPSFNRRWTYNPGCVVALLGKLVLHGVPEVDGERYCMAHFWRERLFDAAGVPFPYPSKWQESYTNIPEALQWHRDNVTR

CcTet-ΔN16 = biological target: T2, CcTet-ΔN16 (Coprinopsis cinerea, UniProt A8P1J0 17-430); experiment: X-ray crystallography (2.3 Å); Mn2+, N-oxalylglycine (NOG); MST: NT-495 labeled protein, room temperature, 5 min incubation, buffer not stated (protein gel-filtration buffer 20 mM HEPES pH 7.0, 100 mM NaCl, 1 mM DTT). Crystals: 2 mM NOG, 1 mM MnCl2, protein:DNA 1:1.2, 20 mM sodium formate, 10% PEG8000, 277 K; details: protein: recombinant; tags: N-terminal His-Sumo1, removed by Ulp1; blunt; as printed, T of strand 2 (position 7) lies opposite 5mC6 (mismatch)
T2 sequence: T1 sequence (A8P1J0 17-430)

CcTet-ΔN16 R92A = biological target: T3, CcTet-ΔN16 R92A (Coprinopsis cinerea, UniProt A8P1J0 17-430, R92A); experiment: MST; MST: NT-495 labeled protein, room temperature, 5 min incubation, buffer not stated (protein gel-filtration buffer 20 mM HEPES pH 7.0, 100 mM NaCl, 1 mM DTT). Crystals: 2 mM NOG, 1 mM MnCl2, protein:DNA 1:1.2, 20 mM sodium formate, 10% PEG8000, 277 K; details: protein: recombinant; tags: N-terminal His-Sumo1, removed by Ulp1; blunt
T3 sequence: T1 sequence (A8P1J0 17-430) with R76A

CcTet-ΔN16 H234A = biological target: T4, CcTet-ΔN16 H234A (Coprinopsis cinerea, UniProt A8P1J0 17-430, H234A); experiment: as above; details: protein: recombinant; tags: N-terminal His-Sumo1, removed by Ulp1; blunt
T4 sequence: T1 sequence (A8P1J0 17-430) with H218A

CcTet-ΔN16 R96A = biological target: T5, CcTet-ΔN16 R96A (Coprinopsis cinerea, UniProt A8P1J0 17-430, R96A); experiment: as above; details: protein: recombinant; tags: N-terminal His-Sumo1, removed by Ulp1; blunt
T5 sequence: T1 sequence (A8P1J0 17-430) with R80A

Q: For O=C(O)CNC(=O)C(=O)O [N-oxalylglycine], which “X-ray crystallography, 2.3 Å” value [1] is on record?
A: NOG was stabilized through hydrophilic and hydrophobic interactions with several nearby residues

B1: 12-bp 5mC-dsDNA (dsDNA)
DNA 1: CGATCCGCTACG
DNA 2: CGTAGCTGATCG
modifications: 5mC at position 6 of strand 1
Q: Does B1 bind (CcTet-ΔN16)?
A: binds

B2: 19-bp 5mC-dsDNA (dsDNA)
DNA 1: TCTGGAACGGAATTCTTCA
DNA 2: TGAAGAATTCCGTTCCAGA
modifications: 5mC at position 8 of strand 1
Q: Does B2 bind (CcTet-ΔN16 R92A)?
A: no binding

Q: Does B2 bind (CcTet-ΔN16 H234A)?
A: no binding

Q: Does B2 bind (CcTet-ΔN16 R96A)?
A: no binding
